{"source": "paper PMC3968158", "key": {"CrkL SH2 domain, 9-108": {"biological_target": "CrkL SH2 domain, 9-108 (UniProt P46109)", "experiment": "GST pull-down from infected-cell lysate, anti-Tir blot", "conditions": "reference: WT Tir (Δtir EPEC + ptir); sites Y474"}, "CrkII SH2 domain, 1-124": {"biological_target": "CrkII SH2 domain, 1-124 (UniProt Q64010)", "experiment": "GST pull-down from infected-cell lysate, anti-Tir blot", "conditions": "reference: WT Tir (Δtir EPEC + ptir); sites Y474"}}, "data": [{"substance": "Tir (translocated intimin receptor) (from UniProt B7UM99) Tir Y474F (Δtir EPEC + ptirY474F)", "values": [{"measurement": "binding against the reference", "setting": "CrkL SH2 domain, 9-108", "value": "lost"}, {"measurement": "binding against the reference", "setting": "CrkII SH2 domain, 1-124", "value": "lost"}]}]}
